T1: wild-type human Claudin 5 protein (human, UniProt O00501 1-218)
T1 construct: also called hCLDN5; CLDN 5
T1 sequence: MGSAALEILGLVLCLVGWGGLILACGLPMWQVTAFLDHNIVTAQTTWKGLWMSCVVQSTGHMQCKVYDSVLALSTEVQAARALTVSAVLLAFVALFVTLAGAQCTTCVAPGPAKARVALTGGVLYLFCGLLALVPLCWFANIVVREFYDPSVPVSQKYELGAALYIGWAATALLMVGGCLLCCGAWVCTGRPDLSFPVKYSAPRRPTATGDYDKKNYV

B1: antibody 3A5 (antibody, IgG2a, V domains shown)
VH: QVQLQQPGTELVKPGASVKLSCKASGYTFTSYWMHWVKQRPGQGLEWIGNINPSNGGTNYNEKFKSKATLTVDKSSTTAYMLLSSLTSEDSAVYYCARYYGSSFLYWYFDVWGTGTTVTVSS
VL: DIVMTQSHKFMSSSVGDRVSITCKASQDVGTAVAWYQQKPGQSPKILIYWASTRHTGVPDRFTGSGSGTDFTLTISNVQSEDLADYFCQQYSSYPTFGSGTKLEIKR
notes: Tested as hybridoma culture supernatant in the screening; also called antibody G
B2: antibody 1B3 (antibody, IgG2, V domains shown)
VH: QIQLVQSGPELKKPGETVKISCKASGYSFTAHGMSWVKQAPGKGLKWMGWINTYSGVPAYADDFKGRFAFSLETSPSTAFLQINNLKNEDTATYFCTRSHYDRKFGYWGQGTLVTVSA
VL: QAVVTQESALTTSPGETVTLTCRSSTGAVTTSNYANWVQEKPDHLFTGLIGDTNNRAPGVPARFSGSLIGDKAALTITGAQTGDEAIYFCALWYSNLWVFGGGTKLTVRG
notes: Tested as hybridoma culture supernatant in the screening; also called antibody E
B3: antibody 1D1 (antibody, IgG2a, V domains shown)
VH: QVQLQQPGAEHVKPGASVKLSCKASGYTFTTYWIHWVKQRPGRGLEWIGRIAPNSGGTKYNENFKSKATLTVDRPSTTAYMQLSGLTSEDSAVYYCARWDFTFGTNLDYWGQGTTLTVSS
VL: DIVMTQSQKFMSTSVGDRVSITCKASQNVRTAVAWYQQKPGQSPKALIFLASNRHTGVPDRFTGSGSGTDFTLTITNVQSEDLADYFCLQHWTYPYTFGGGTKLEIKR
notes: Tested as hybridoma culture supernatant in the screening; also called antibody F

Molecular target: T1, wild-type human Claudin 5 protein
Test: FACS screening of hybridoma supernatants on human Claudin 5-expressing HT-1080 cells against mock cells; positive clones
Description: The cells were washed three times with 0.2% BSA-TBS, and then mixed with 100 μL of a secondary antibody solution (FITC conjugated goat anti-mouse IgG+IgM in 1% BSA-PBS (1:400)), followed by a reaction at 4° C. for 1 hour. The cells were washed with 0.2% BSA-TBS, and FACS analysis (FACS caliber, BD Bioscience) was performed.

binding result | Binder
binds | B1
binds | B2
binds | B3
